Laboratory results as given in US20220177587A1, “METHODS AND USES OF VARIANT CD80 FUSION PROTEINS AND RELATED CONSTRUCTS” (Alpine Immune Sciences, Inc., priority 2018, published 2022).

Tests used:
human PD-L1 (human) [1] = target: human PD-L1 (human) (UniProt Q9NZQ7); assay: flow cytometry, CHO cells expressing huPD-L1
human CTLA-4 (human) [2] = target: human CTLA-4 (human) (UniProt P16410); assay: flow cytometry, CHO cells expressing huCTLA-4
human PD-L1 (human) [3] = target: human PD-L1 (human) (UniProt Q9NZQ7); assay: flow cytometry; binding to PD-L1 cells against binding of the same variant to CD28 cells
CD28 (human) [4] = target: CD28 (human) (UniProt P10747); assay: flow cytometry, Jurkat/IL2 reporter cells (endogenous CD28)
human CTLA-4 (human) [5] = target: human CTLA-4 (human) (UniProt P16410); assay: flow cytometry, CHO cells expressing huCTLA4
CD28 (human) [6] = target: CD28 (human) (UniProt P10747); assay: flow cytometry, Jurkat/IL2 reporter cells (endogenous CD28); MFI ratio to WT CD80 ECD-Fc (R&D)
human PD-L1 (human) [7] = target: human PD-L1 (human) (UniProt Q9NZQ7); assay: flow cytometry, CHO cells expressing huPD-L1; MFI ratio to WT CD80 ECD-Fc (R&D)
human CTLA-4 (human) [8] = target: human CTLA-4 (human) (UniProt P16410); assay: flow cytometry, CHO cells expressing huCTLA4; MFI ratio to WT CD80 ECD-Fc (R&D)

Chain of human PD-L1 (human) (Q9NZQ7 19-290): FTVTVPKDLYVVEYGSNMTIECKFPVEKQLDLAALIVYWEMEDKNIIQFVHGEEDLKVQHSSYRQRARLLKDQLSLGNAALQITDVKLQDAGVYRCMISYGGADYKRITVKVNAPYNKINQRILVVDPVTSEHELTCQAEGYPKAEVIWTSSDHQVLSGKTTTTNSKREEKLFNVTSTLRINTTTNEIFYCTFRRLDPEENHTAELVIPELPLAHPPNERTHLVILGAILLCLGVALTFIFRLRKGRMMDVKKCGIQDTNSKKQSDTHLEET
Chain of human CTLA-4 (human) (P16410 36-223): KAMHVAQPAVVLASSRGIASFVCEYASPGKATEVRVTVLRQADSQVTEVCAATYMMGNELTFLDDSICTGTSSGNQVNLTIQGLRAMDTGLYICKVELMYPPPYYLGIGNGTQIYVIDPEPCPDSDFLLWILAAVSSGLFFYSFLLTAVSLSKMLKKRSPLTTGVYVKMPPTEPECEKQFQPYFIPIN

Binder | MFI at 33.3 nM (human PD-L1 (human) [1]) [MFI] | MFI at 33.3 nM (human CTLA-4 (human) [2]) [MFI] | Ratio of PDL1:CD28 (human PD-L1 (human) [3]) | MFI at 33.3 nM (CD28 (human) [4]) [MFI] | MFI at 33.3 nM (human CTLA-4 (human) [5]) [MFI] | Fold change to WT (CD28 (human) [6]) [fold] | Fold change to WT (human PD-L1 (human) [7]) [fold] | Fold change to WT CD80 (human CTLA-4 (human) [8]) [fold]
variant CD80 IgV-Fc E35D/D46V/M47L (Fc fusion) VIHVTKEVKEVATLSCGHNVSVEELAQTRIYWQKDKKMVLTMMSGVLNIWPEYKNRTIFDITNNLSIVILALRPSDEGTYECVVLKYEKDAFKREHLAEVTLSVKAD | 7990 | 45000 |  |  |  |  |  | 
variant CD80 IgV-Fc E35D/M47I/E77A/L85Q/R94W (Fc fusion) VIHVTKEVKEVATLSCGHNVSVEELAQTRIYWQKDKKMVLTMMSGDINIWPEYKNRTIFDITNNLSIVILALRPSDAGTYECVVQKYEKDAFKWEHLAEVTLSVKAD | 64500 |  | 238 | 272 | 247000 | 0.04 | 8.12 | 1.38
variant CD80 IgV-Fc H18L/V22A/E35D/M47L/N48T/L85Q (Fc fusion) VIHVTKEVKEVATLSCGLNVSAEELAQTRIYWQKDKKMVLTMMSGDLTIWPEYKNRTIFDITNNLSIVILALRPSDEGTYECVVQKYEKDAFKREHLAEVTLSVKAD | 98100 |  | 226 | 434 | 374000 | 0.06 | 12.3 | 2.09
variant CD80 IgV-Fc Q33L/E35D/M47L/A71G/F92S (Fc fusion) VIHVTKEVKEVATLSCGHNVSVEELAQTRIYWLKDKKMVLTMMSGDLNIWPEYKNRTIFDITNNLSIVILGLRPSDEGTYECVVLKYEKDASKREHLAEVTLSVKAD | 28000 |  | 77 | 366 | 2110 | 0.05 | 3.53 | 0.01
variant CD80 IgV-Fc V22A/E23D/Q33L/E35D/M47V (Fc fusion) VIHVTKEVKEVATLSCGHNVSADELAQTRIYWLKDKKMVLTMMSGDVNIWPEYKNRTIFDITNNLSIVILALRPSDEGTYECVVLKYEKDAFKREHLAEVTLSVKAD | 75500 |  | 275 | 274 | 3640 | 0.04 | 9.51 | 0.02
variant CD80 IgV-Fc Q33L/E35D/T41S/M43I (Fc fusion) VIHVTKEVKEVATLSCGHNVSVEELAQTRIYWLKDKKMVLSMISGDMNIWPEYKNRTIFDITNNLSIVILALRPSDEGTYECVVLKYEKDAFKREHLAEVTLSVKAD | 44900 |  | 104 | 433 | 6390 | 0.06 | 5.66 | 0.04
variant CD80 IgV-Fc E35D/D46E/M47V/L97Q (Fc fusion) VIHVTKEVKEVATLSCGHNVSVEELAQTRIYWQKDKKMVLTMMSGEVNIWPEYKNRTIFDITNNLSIVILALRPSDEGTYECVVLKYEKDAFKREHQAEVTLSVKAD | 19500 |  | 52 | 371 | 305000 | 0.05 | 2.45 | 1.71
variant CD80 IgV-Fc H18Y/Y31H/E35D/M47V/A71G/L85Q (Fc fusion) VIHVTKEVKEVATLSCGYNVSVEELAQTRIHWQKDKKMVLTMMSGDVNIWPEYKNRTIFDITNNLSIVILGLRPSDEGTYECVVQKYEKDAFKREHLAEVTLSVKAD | 76400 |  | 285 | 268 | 3840 | 0.04 | 9.61 | 0.02
variant CD80 IgV-Fc Q33K/E35D/D46V/L85Q (Fc fusion) VIHVTKEVKEVATLSCGHNVSVEELAQTRIYWKKDKKMVLTMMSGVMNIWPEYKNRTIFDITNNLSIVILALRPSDEGTYECVVQKYEKDAFKREHLAEVTLSVKAD | 26700 |  | 104 | 257 | 8510 | 0.03 | 3.36 | 0.05
variant CD80 IgV-Fc V22A/R29H/E35D/D46E/M47I (Fc fusion) VIHVTKEVKEVATLSCGHNVSAEELAQTHIYWQKDKKMVLTMMSGEINIWPEYKNRTIFDITNNLSIVILALRPSDEGTYECVVLKYEKDAFKREHLAEVTLSVKAD | 25400 |  | 79 | 323 | 77400 | 0.04 | 3.2 | 0.43
variant CD80 IgV-Fc E35D/D46V/V68M (Fc fusion) VIHVTKEVKEVATLSCGHNVSVEELAQTRIYWQKDKKMVLTMMSGVMNIWPEYKNRTIFDITNNLSIMILALRPSDEGTYECVVLKYEKDAFKREHLAEVTLSVKAD | 26100 | 31200 |  |  |  |  |  | 
variant CD80 IgV-Fc Q33L/E35D/M43I/L85Q/R94W (Fc fusion) VIHVTKEVKEVATLSCGHNVSVEELAQTRIYWLKDKKMVLTMISGDMNIWPEYKNRTIFDITNNLSIVILALRPSDEGTYECVVQKYEKDAFKWEHLAEVTLSVKAD | 29000 |  | 107 | 272 | 1080 | 0.04 | 3.65 | 0.01
variant CD80 IgV-Fc Q27H/Q33L/E35D/M47V/N55D/L85Q/K89N (Fc fusion) VIHVTKEVKEVATLSCGHNVSVEELAHTRIYWLKDKKMVLTMMSGDVNIWPEYKDRTIFDITNNLSIVILALRPSDEGTYECVVQKYENDAFKREHLAEVTLSVKAD | 14800 |  | 55 | 269 | 56100 | 0.04 | 1.86 | 0.31
variant CD80 IgV-Fc Q33L/E35D/M43V/M47I/A71G (Fc fusion) VIHVTKEVKEVATLSCGHNVSVEELAQTRIYWLKDKKMVLTMVSGDINIWPEYKNRTIFDITNNLSIVILGLRPSDEGTYECVVLKYEKDAFKREHLAEVTLSVKAD | 78000 |  | 275 | 284 | 14000 | 0.04 | 9.82 | 0.08
variant CD80 IgV-Fc E35D/M47V/A71G/L85M/L97Q (Fc fusion) VIHVTKEVKEVATLSCGHNVSVEELAQTRIYWQKDKKMVLTMMSGDVNIWPEYKNRTIFDITNNLSIVILGLRPSDEGTYECVVMKYEKDAFKREHQAEVTLSVKAD | 61700 |  | 182 | 339 | 239000 | 0.04 | 7.77 | 1.34
variant CD80 IgV-Fc Q33L/E35D/M47L/V68M/L85Q/E88D (Fc fusion) VIHVTKEVKEVATLSCGHNVSVEELAQTRIYWLKDKKMVLTMMSGDLNIWPEYKNRTIFDITNNLSIMILALRPSDEGTYECVVQKYDKDAFKREHLAEVTLSVKAD | 126000 |  | 476 | 264 | 3530 | 0.03 | 15.8 | 0.02
variant CD80 IgV-Fc H18Y/E35D/V68M/L97Q (Fc fusion) VIHVTKEVKEVATLSCGYNVSVEELAQTRIYWQKDKKMVLTMMSGDMNIWPEYKNRTIFDITNNLSIMILALRPSDEGTYECVVLKYEKDAFKREHQAEVTLSVKAD | 122000 |  | 407 | 299 | 173000 | 0.04 | 15.3 | 0.97
variant CD80 IgV-Fc E7D/E35D/M47I/L97Q (Fc fusion) VIHVTKDVKEVATLSCGHNVSVEELAQTRIYWQKDKKMVLTMMSGDINIWPEYKNRTIFDITNNLSIVILALRPSDEGTYECVVLKYEKDAFKREHQAEVTLSVKAD | 14600 |  | 54 | 273 | 271000 | 0.04 | 1.84 | 1.52
variant CD80 IgV-Fc Q33L/E35D/N48K/L85Q/L97Q (Fc fusion) VIHVTKEVKEVATLSCGHNVSVEELAQTRIYWLKDKKMVLTMMSGDMKIWPEYKNRTIFDITNNLSIVILALRPSDEGTYECVVQKYEKDAFKREHQAEVTLSVKAD | 45200 |  | 162 | 279 | 1180 | 0.04 | 5.69 | 0.01
variant CD80 IgV-Fc H18Y/V20A/Q33L/E35D/M47V/Y53F (Fc fusion) VIHVTKEVKEVATLSCGYNASVEELAQTRIYWLKDKKMVLTMMSGDVNIWPEFKNRTIFDITNNLSIVILALRPSDEGTYECVVLKYEKDAFKREHLAEVTLSVKAD | 121000 |  | 463 | 260 | 2880 | 0.03 | 15.2 | 0.02
variant CD80 IgV-Fc Y31S/E35D/M47L/T79L/E88G (Fc fusion) VIHVTKEVKEVATLSCGHNVSVEELAQTRISWQKDKKMVLTMMSGDLNIWPEYKNRTIFDITNNLSIVILALRPSDEGLYECVVLKYGKDAFKREHLAEVTLSVKAD | 38900 |  | 140 | 278 | 1100 | 0.04 | 4.9 | 0.01
